To fix the notation:
B1: antibody 569 (antibody, V domains shown)
VH: QVQLVESGGGVVQPGRSLRLSCAASGFTFSSYAMHWVRQAPGKGLEWVAVISYDGSNKYYADSVKGRFTISRDNSKNTLYLQMNSLRAEDTAVYYCARASSGGYQGPFDPWGQGTLVTVSS
VL: EIVLTQSPATLSLSPGERATLSCRASQSVSSYLAWYQQKPGQAPRLLIYDASNRATGIPARFSGSGSGTDFTLTISSLEPEDFAVYYCQQRSSPFGPGTKVDIK
B2: antibody 576 (antibody, V domains shown)
VH: B1 VH with R98K, S100G, S101G, G103S, Q105Y, G106R, P107G, P110Y
VL: DIQLTQSPSFLSASVGDRVTITCRASQGISSYLAWYQQKPGKAPKLLIYAASTLQSGVPSRFSGSGSGTEFTLTISSLQPEDFATYYCQQLNSYPTFGPGTKVDIK
B3: antibody 566 (antibody, V domains shown)
VH: QVQLVQSGAEVKKPGASVKVSCKASGYTFTSYAMHWVRQAPGQRLEWMGWINAGNGNTKYSQKFQGRVTITRDTSASTAYMELSSLRSEDTAVYYCARDLGVAVTLHPADFDYWGQGTLVTVSS
VL: QSVLTQPPSVSGAPGQRVTISCTGSSSNIGAGYDVHWYQQLPGTAPKLLIYDNSNRPSGVPDRFSGSKSGTSASLAITGLQAEDEADYYCQSYDSSLSAVVFGGGTKLTVL
B4: antibody 571 (antibody, V domains shown)
VH: EVQLVESGGGLVQPGGSLRLSCAASGFTFSTYWMTWVRQAPGKGLEWVANIKHDGSGKYHVDSVKGRFTISRDNAKNSLYLQMNSLRAEDTAVYYCTRDEGGWYDYWGQGTLVTVSS
VL: QSALTQPASVSGSPGQSITISCTGTSSDVGSYNPVSWYQQHPGKAPKVMIYEGSKRPSGVSNRFSGSKSGNTASLTISGLQAEDEADYYCCSYARSSTFVVFGGGTKLTVL
B5: antibody 564 (antibody, V domains shown)
VH: QVHLVESGGGVVQPGKSLRLSCAASGFIFSSFGMHWVRQPPGKGLEWLAVVSYDGSVTKYSDSFEGRFTISRDNSKNTLYLQMDSLRPEDTAVYYCAKGQGTNLLHYWGQGILVTVSS
VL: DVVLSQSPLSLPVTLGQPASISCRSSESLVYTDGDTYLHWFHQRPGQSPRRLIFKVSHRESGVPDRISGSGSGTDFTLKISRVEAEDVGVYYCMQGTHWPFTFGPGTKVDIK
B6: antibody 560 (antibody, V domains shown)
VH: EVQLVESGGGLVQPGGSLRLSCAASGFTISSNYMSWVRQAPGKGLEWVSVIYSGGSTYYADSVKGRFTISRDNSKNTLYLQMNSLRAEDTAVYYCAREEGEWEKDYYGMDVWGQGTTVTVSS
VL: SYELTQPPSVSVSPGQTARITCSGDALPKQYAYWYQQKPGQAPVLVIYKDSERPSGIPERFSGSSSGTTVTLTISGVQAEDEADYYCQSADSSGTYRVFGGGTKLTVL
B7: antibody 563 (antibody, V domains shown)
VH: QVQLVESGGGVVQPGRSLRLSCAASGFTFSSYAMHWVRQAPGKGLEWVAVISDDGSNKYYADSVKGRFTISRDNSKNTLYLQMNSLRAEDTAVYYCARDIVATIRRLFDYWGQGTLVTVSS
VL: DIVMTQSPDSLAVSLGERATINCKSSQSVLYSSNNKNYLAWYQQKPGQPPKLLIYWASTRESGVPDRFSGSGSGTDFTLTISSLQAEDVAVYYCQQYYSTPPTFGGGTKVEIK
B8: antibody 423 (antibody, V domains shown)
VH: EVQLVESGGGLIQPGGSLRISCAASGFTVRNNHMSWVRQAPGKGLEWVSVFYRGGTTYYADSVKGRFTISRDDSKNTVDLQMNSLRGEDTAVYYCARGLSVAASGYFDCWGQGTLVTVSS
VL: DIQMTQSPSSVSASVGDTVTITCRANQGISSWLAWYQQVPGKAPELLIYATSTLQSGVPSRFSGSGSGTDFTLTISSLQPEDFATYYCQQANSFPFTFGPGTKVDIK
B9: antibody 431 (antibody, V domains shown)
VH: B1 VH with V48L, A99S, S100F, S101R, Q105Y, G106Y, P107G, F108M, P110V, L116T
VL: DIQLTQSPSFLSASVGDRVTITCRASQGISSYLAWYQQKPGKAPKLLIYAASTLQSGVPSRFSGSGSGTEFTLTISSLQPEDFATYYCQQLNSYPLFTFGPGTKVDIK
B10: antibody 439 (antibody, V domains shown)
VH: B1 VH with A99P, S100P, S101R, Y104S, Q105Y, G106Y
VL: not shown
B11: antibody 421 (antibody, V domains shown)
VH: QVQLVESGGGVVQPGRSLRLSCAASGFTFSTYAMHWVRQAPGKGLEWVAVISYDGSNKYYADSVKGRFTISRDNSKNTLYLQMNSLRAEDTAVYYCARGYGSGSYYPLYLYWGQGTLVTVSS
VL: not shown
B12: antibody 454 (antibody, V domains shown)
VH: QVQLVQSGAEVKKPGASLKVSCKASGYIFTGYYMHWVRQAPGQGLEWMGWISPNSGGTKYAQKFQGRVTMTRDTSISTAYMELSRLRSDDSAVYYCAREPYYDILTGYYTPRRYLDYWGQGTLVTVSS
VL: QSALTQPASVSGSPGQSITISCTGTSSDVGDYNYVSWYQQHPGKVPKLMIYDVSHRPSGVTNRFSGSKSGNTASLTISGLRAEDEADYYCSSYTSSSTYVFGTGTKVTVL
B13: antibody 422 (antibody, V domains shown)
VH: QVQLVQSGSELKKPGASVKVSCKASGYTFTSYAMNWVRQAPGQGLEWMGWINTNTGNPTYAQGFTGRFVFSLDTSVSTTYLQISSLKAEDTAVYYCARVIGVVTYYYYGMDVWGQGTTVTVSS
VL: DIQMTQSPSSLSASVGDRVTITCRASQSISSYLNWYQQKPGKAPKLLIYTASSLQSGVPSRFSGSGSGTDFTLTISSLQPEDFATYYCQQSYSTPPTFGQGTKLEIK
B14: antibody 446 (antibody, V domains shown)
VH: B1 VH with A99P, S100N, G103S, Q105F, P107Y, D109Q, P110H
VL: QSVLTQPPSVSGAPGQRVTISCTGSSSNIGAGYDVHWYQQLPGTAPKLLIYGNSNRPSGVPDRFSGSKSGTSASLAITGLQAEDEADYYCQSYDSSLSGFYVFGTGTKVTVL
B15: anti-SARS-CoV-2 antibody 1081 (antibody, V domains shown)
VH: QITLKESGPTLVKPTQTLTLTCTFSGFSLSTSRVGVGWIRQPPGKALEWLALIYWNDGKLYSPSLKSRLTITKDTSKNQVVLTLTNMDSVDTATYFCARGQTGTPLYDAFDFWGRGTMVTVSS
VL: SYVLTQPPSVSVAPGKTAGITCGGDNFETKSVSWYQHKPGQAPVLVVYGNANRPSGIPERFSASKSGNTATLTISRVEAGDEADYYCQVWDSRSFHYVVFGGGTKLTVL
B16: anti-SARS-CoV-2 antibody 1000 (antibody, V domains shown)
VH: EVQLVQSGAEVKKPGESLKISCKASGYSFTIYWIGWVRQMPGKGLEWMGVIYPGDSDTRYSPSFQGQVTISADKSISTAYLQWSSLKASDTAMYYCALGYHSGSYPFNWFDPWGQGTLVTVSS
VL: EIVMTQSPATLSVSPGERATLSCRASQSVSSNLAWYQQKPGQTPRLLIYGASTRATGIPARFSGSGSGTEFTLTISSLQSEDFAVYYCQQYDNLLTFGGGTKVEIK
B17: anti-SARS-CoV-2 antibody 989 (antibody, V domains shown)
VH: QVQLVQSGAEVKKPGASVKVSCKASGYTFTNYYMHWVRQAPGQGLEWMGIINPSDDNTTYAQKIQGRVIMTRDTSTSTVYMELSSLRSEDTAVYYCARAFAEWELLLDYWGQGTLVTVSS
VL: not shown

Numbering of substitutions follows the chain as printed.

In one experiment the target is SARS-CoV-2 full length Spike protein, wild type (SARS-CoV-2, UniProt P0DTC2 14-1208).
Test: not given
Regarding B1, the “median fluorescence intensity, fold over isotype control” value (from here on “median fluorescence intensity, fold”) is 478 fold over isotype.

With B2, the “median fluorescence intensity, fold” value is 566 fold over isotype.

Turning to B3, the “median fluorescence intensity, fold” value was 613 fold over isotype.

For the molecule B4, the “median fluorescence intensity, fold” value was determined as 338 fold over isotype.

For the molecule B5, the “median fluorescence intensity, fold” value came to 523 fold over isotype.

On to B6, for which the “median fluorescence intensity, fold” value was determined as 991 fold over isotype.

For B7, the “median fluorescence intensity, fold” value came out at 513 fold over isotype.

A further experiment has the same target.
Test: not given
This is another data set of the same source.
Turning to B8, the “median fluorescence, fold over isotype” value came out at 1190 fold over isotype control.

In the case of B9, the “median fluorescence, fold over isotype” value was found to be 715 fold over isotype control.

With B10, the “median fluorescence, fold over isotype” value came to 227 fold over isotype control.

As for B11, the “median fluorescence, fold over isotype” value amounted to 505 fold over isotype control.

Regarding B12, the “median fluorescence, fold over isotype” value is 1090 fold over isotype control.

Regarding B13, the “median fluorescence, fold over isotype” value was found to be 1250 fold over isotype control.

As for B14, the “median fluorescence, fold over isotype” value was 435 fold over isotype control.

The target of the next experiment is SARS-CoV-2 Spike protein (wild type) (SARS-CoV-2, UniProt P0DTC2 14-1208). Kind of experiment: SPR (Carterra LSA), mAb coupled to HC30M chip, Spike titrated; Example 4 methods.
By Kd is commonly meant the constant that tells how readily two partners part at equilibrium. Read a low Kd as a tighter complex. B15: the affinity, expressed as Kd, was 0.093 nM.

As to B16, the Kd was 0.092 nM.

Molecule B17 registered a Kd of 0.104 nM. This Kd and that of the molecule before are within 1.5-fold of each other.

Values taken from patent US20220356229A1 (published 2022).
